Experimental data from patent EP2149585A1 (Novartis Vaccines and Diagnostics, Inc., dated 2010).

Assays:
[1] = target: human CD40 on the cell surface (human, UniProt P25942 20-277); test: cell-based or functional assay
[2] = target: T1, Recombinant soluble CD40-his (human, UniProt P25942 21-193); test: Biacore SPR, CD40-his over captured antibody
T1 construct: Soluble recombinant CD40 with his tag used in Biacore

[3] = target: T2, CD40 Domain 2 peptide, spot 18 (human); test: SPOTs membrane of 10mer peptides, antibody at 10 µg/ml
T2 construct: 10mer on a SPOTs membrane
T2 peptide: HQHKYCDPNL

[4] = target: T3, CD40 Domain 2 peptide, spot 19 (human); test: as above
T3 construct: 10mer on a SPOTs membrane
T3 peptide: QHKYCDPNLG

[5] = target: T4, CD40 Domain 2 peptide, spot 20 (human); test: as above
T4 construct: 10mer on a SPOTs membrane
T4 peptide: HKYCDPNLGL

[6] = target: T5, CD40 Domain 2 peptide, spot 21 (human); test: as above
T5 construct: 10mer on a SPOTs membrane
T5 peptide: KYCDPNLGLR

[7] = target: T6, CD40 Domain 2 peptide, spot 22 (human); test: as above
T6 construct: 10mer on a SPOTs membrane
T6 peptide: YCDPNLGLRV

[8] = target: T7, CD40 extracellular Domain 2 GST fusion protein (human, UniProt P25942 61-104); test: SDS-PAGE and western blot of GST-domain fusion proteins from insect cell supernatant
T7 construct: Secreted from insect cells with a GP67 secretion signal; not shown: glutathione S-transferase (GST) fusion partner
T7 chain: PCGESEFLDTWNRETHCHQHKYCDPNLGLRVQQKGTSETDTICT

[9] = target: T1, Recombinant soluble CD40-his; test: Biacore SPR: antibody captured on immobilized protein A, CD40-his flowed at varying concentrations; 1:1 model, global fit
[10] = target: T8, CD40 Domain 2 10mer peptide, spot 18 (HQHKYCDPNL) (human); test: SPOTs peptide membrane probed with the mAb at 10 µg/ml, anti-human IgG beta-galactosidase secondary; spot 18 listed as positive
T8 peptide: HQHKYCDPNL

[11] = target: T9, CD40 Domain 2 10mer peptide, spot 19 (QHKYCDPNLG) (human); test: SPOTs peptide membrane probed with the mAb at 10 µg/ml, anti-human IgG beta-galactosidase secondary; spot 19 listed as positive
T9 peptide: QHKYCDPNLG

[12] = target: T10, CD40 Domain 2 10mer peptide, spot 20 (HKYCDPNLGL) (human); test: SPOTs peptide membrane probed with the mAb at 10 µg/ml, anti-human IgG beta-galactosidase secondary; spot 20 listed as positive
T10 peptide: HKYCDPNLGL

[13] = target: T11, CD40 Domain 2 10mer peptide, spot 21 (KYCDPNLGLR) (human); test: SPOTs peptide membrane probed with the mAb at 10 µg/ml, anti-human IgG beta-galactosidase secondary; spot 21 listed as positive
T11 peptide: KYCDPNLGLR

[14] = target: T12, CD40 Domain 2 10mer peptide, spot 22 (YCDPNLGLRV) (human); test: SPOTs peptide membrane probed with the mAb at 10 µg/ml, anti-human IgG beta-galactosidase secondary; spot 22 listed as positive
T12 peptide: YCDPNLGLRV

[15] = target: T13, CD40 extracellular Domain 2 GST fusion protein (human, UniProt P25942 61-104); test: Western blot, GST fusion of Domain 2 from insect cell supernatant
T13 construct: Expressed in insect cells with a GP67 secretion signal; not shown: GST fusion partner
T13 chain: T7 chain

[16] = target: T14, CD40 extracellular Domain 3 GST fusion protein (human, UniProt P25942 105-144); test: Western blot, GST fusion of the domain from insect cell supernatant
T14 construct: Expressed in insect cells with a GP67 secretion signal; only the domain stood in the assay; not shown: GST fusion partner
T14 chain: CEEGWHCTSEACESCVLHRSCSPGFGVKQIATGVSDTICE

[17] = target: T15, CD40 extracellular Domain 4 GST fusion protein (human, UniProt P25942 145-187); test: as above
T15 construct: Expressed in insect cells with a GP67 secretion signal; only the domain stood in the assay; not shown: GST fusion partner
T15 chain: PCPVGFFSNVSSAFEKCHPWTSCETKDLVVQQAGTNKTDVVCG

[18] = target: T16, CD40 extracellular Domain 1 GST fusion protein (human, UniProt P25942 21-60); test: as above
T16 construct: Expressed in insect cells with a GP67 secretion signal; only the domain stood in the assay; not shown: GST fusion partner
T16 chain: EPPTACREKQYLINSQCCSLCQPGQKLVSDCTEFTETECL

[19] = target: T4, CD40 Domain 2 peptide, spot 20; test: SPOTs membrane of 10mer peptides, stripped and reprobed
[20] = target: T5, CD40 Domain 2 peptide, spot 21; test: as above
[21] = target: T6, CD40 Domain 2 peptide, spot 22; test: as above
[22] = target: T10, CD40 Domain 2 10mer peptide, spot 20 …; test: SPOTs peptide membrane stripped and reprobed with the mAb; spot 20 listed as recognized
[23] = target: T11, CD40 Domain 2 10mer peptide, spot 21 …; test: SPOTs peptide membrane stripped and reprobed with the mAb; spot 21 listed as recognized
[24] = target: T12, CD40 Domain 2 10mer peptide, spot 22 …; test: SPOTs peptide membrane stripped and reprobed with the mAb; spot 22 listed as recognized

human CD40 on the cell surface, sequence (P25942 20-277): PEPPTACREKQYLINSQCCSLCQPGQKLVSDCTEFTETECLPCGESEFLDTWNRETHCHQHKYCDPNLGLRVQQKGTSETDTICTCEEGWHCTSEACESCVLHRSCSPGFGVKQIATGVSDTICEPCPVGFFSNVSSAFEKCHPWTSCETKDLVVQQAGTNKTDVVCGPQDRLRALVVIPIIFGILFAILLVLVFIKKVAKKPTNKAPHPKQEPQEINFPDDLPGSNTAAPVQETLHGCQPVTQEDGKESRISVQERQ

B1: CHIR-12.12 (antibody, human IgG1, kappa)
heavy: not shown
light: DIVMTQSPLSLTVTPGEPASISCRSSQSLLYSNGYNYLDWYLQKPGQSPQVLISLGSNRASGVPDRFSGSGSGTDFTLKISRVEAEDVGVYYCMQARQTPFTFGPGTKVDIRRTVAAPSVFIFPPSDEQLKSGTASVVCLLNNFYPREAKVQWKVDNALQSGNSQESVTEQDSKDSTYSLSSTLTLSKADYEKHKVYACEVTHQGLSSPVTKSFNRGEC
- average IC50 of inhibition of CD40 ligand-induced lymphocyte proliferation, lymphocytes from 6 donors [1]: 0.047 nM
- fold difference in the off rate against CHIR-5.9 [2]: 121 fold
- fold higher affinity against CHIR-5.9 [2]: 24 fold
- binding result [3]: binds
- binding result [4]: binds
- binding result [5]: binds
- binding result [6]: binds
- binding result [7]: binds
- binding result [8]: binds
- Kd [9]: 0.51 nM
- koff [9]: 0.000124 s⁻¹
- kon [9]: 241000 M⁻¹ s⁻¹

B2: anti-CD40 monoclonal antibody CHIR-12.12 (antibody, human IgG1, kappa)
light: B1 light
heavy: not shown
notes: Fully human IgG1 kappa
- binding result [10]: binds
- binding result [11]: binds
- binding result [12]: binds
- binding result [13]: binds
- binding result [14]: binds

B3: monoclonal antibody CHIR-12.12 (antibody, human IgG1, kappa)
light: B1 light
heavy: not shown
notes: Fully human IgG1 kappa anti-human CD40 mAb; Leader residues (1-20 light, 1-19 heavy) left out as stated
- binding result [15]: binds
- binding result [16]: no binding
- binding result [17]: no binding
- binding result [18]: no binding

B4: CHIR-5.9 (antibody, human IgG1, kappa)
heavy: not shown
light: AIVMTQPPLSSPVTLGQPASISCRSSQSLVHSDGNTYLNWLQQRPGQPPRLLIYKFFRRLSGVPDRFSGSGAGTDFTLKISRVEAEDVGVYYCMQVTQFPHTFGQGTRLEIKRTVAAPSVFIFPPSDEQLKSGTASVVCLLNNFYPREAKVQWKVDNALQSGNSQESVTEQDSKDSTYSLSSTLTLSKADYEKHKVYACEVTHQGLSSPVTKSFNRGEC
notes: also called mAb CHIR-5.9
- binding result [19]: binds
- binding result [20]: binds
- binding result [21]: binds
- binding result [8]: binds
- Kd [9]: 12.2 nM
- koff [9]: 0.015 s⁻¹
- kon [9]: 1.24e+06 M⁻¹ s⁻¹

B5: monoclonal antibody CHIR-5.9 (antibody, human IgG1, kappa)
light: B4 light
heavy: not shown
notes: Fully human IgG1 kappa anti-human CD40 mAb; Leader residues (1-20 light, 1-19 heavy) left out as stated; also called mAb CHIR-5.9
- binding result [15]: binds
- binding result [16]: no binding
- binding result [17]: no binding
- binding result [18]: no binding

B6: anti-CD40 monoclonal antibody CHIR-5.9 (antibody, human IgG1, kappa)
light: B4 light
heavy: not shown
notes: Fully human IgG1 kappa; also called mAb CHIR-5.9; CHIP-5.9
- binding result [22]: binds
- binding result [23]: binds
- binding result [24]: binds
